The values that follow come from patent US20190233498A1 (H LUNDBECK A S, published 2019).

The chains are these.
B1: anti-PACAP antibody Ab5 (antibody, human IgG1, kappa, N297A, V domains shown)
VH: QSVEESGGRLVTPGTPLTLTCTVSGFSLSSYAMIWVRQAPGKGLEWIGIIYDNGDTYYASWAKGRFTISKTSTTVYLKIASPTTEDTATYFCAREPGSTTQNDLWGQGTLVTVSS
VL: DVVMTQTPASVSEPVGGTVTIKCQASENIYNSLLWYQQKPGQPPKLLIYRASTLASGVSSRFKGSGSGTEFTLTISDLECADAATYYCQNYYNIWTNGAAFGGGTEVVVKR
notes: full-length rabbit/human chimeric antibody
B2: anti-PACAP antibody Ab8 (antibody, human IgG1, kappa, N297A, V domains shown)
VH: LEQSGGGAEGGLVKPGGSLELCCKASGFSLTTSHWMCWVRQAPGKGLNWIGCISAGSGDADYATWVDAQFTLSRDIDQNTGCLQLNSLTPADTAMYYCTINFELWGQGTLVTVSS
VL: AQVLTQTPSSVSAAVGGTVTINCQSSPSVYSSYLSWFQQKPGQPPKFLIYEASKLASGVPSRFSGSGSGTQFTLTISGVQCSDAATYYCLGAYDCGRTDCHAFGGGTEVVVKR
notes: as for B1
B3: anti-PACAP antibody Ab6 (antibody, human IgG1, kappa, N297A, V domains shown)
VH: LEQSGGGAEGGLVKPGGSLELCCKASGFSLSSTYWMCWVRQAPGKGLEWIGCIYTGSGSTDYASWVNGQFTLSRDIDQSTGCLQLNSLTVADTAMYYCTKNFDLWGPGTLVTVSS
VL: AQVLTQTPSSVSAAVGGTVTINCQSSPSVYSNNYLSWFQQKPGQPPKGLIADASTLASGVPSRFKGSGSGTQFTLTISGVQCDDAAAYYCLGYYDCGSTDCHAFGGGTEVVVKR
notes: as for B1
B4: anti-PACAP antibody Ab1 (antibody, human IgG1, kappa, N297A, V domains shown)
VH: QSVEESGGRLVTPGTPLTLTCTVSGFSLSSAVMNWVRQAPGKGLEWIGSIVASGTTYYASWANGRFTISKTSSTTMDLKMTSPTTEDTATYFCARGGGEFFIWGPGTLVTVSS
VL: DPVMTQTPSSTSAAVGGTVTISCQSSESVYSNYLSWYQQKPGQPPNFLIYQASNLASGVPSRFKGSGSGTQFTLTITDLECDDAATYYCAGGYSENIVGFGGGTEVVVKR
notes: as for B1
B5: anti-PACAP antibody Ab4 (antibody, human IgG1, kappa, N297A, V domains shown)
VH: QSVEESGGRLVTPGTPLTLTCTVSGFSLSSYDMSWVRQAPGKGLEYIGIINTNDDTWYASWVKGRFTISKTSSTTVDLKMTSLTTEDTATYFCARISDAYVFDYAYYFTLWGQGTLVTVSS
VL: ALVMTQTPSSVSAAVGGTVTINCLASQNIYNSLAWYQQKPGQPPKLLIYRASTLASGVSSRFKGSGSGTQFTLTISGVECADAATYYCQQGAGADNIGNPFGGGTEVVVKR
notes: as for B1
B6: anti-PACAP antibody Ab9 (antibody, human IgG1, kappa, N297A, V domains shown)
VH: EQSGGGAEGGLVKPGGSLKLSCKASGFTISRDYWICWVRQAPGKGLEWIGCISAGGGSTDYANWVNGRFTLSRDIDQSTGCLQLNSLTDADTAMYYCAGNLEIWGQGTLVTVSS
VL: AQVLTQTPSSVSAAVGGTVTINCQSSPSIYSGAFLSWFQQKPGQPPKFLIYEASKLASGVPSRFSGSGSGTQFTLTISDVQCDDAATYYCLGFYDCSSVDCHAFGGGTEVVVKR
notes: as for B1

For one experiment, the target named is T1, human PACAP38 (human, not fully specified; C-terminal lysine is amidated; N-terminal or C-terminal biotin in the HTRF and PC-12 cell binding assays).
T1 peptide: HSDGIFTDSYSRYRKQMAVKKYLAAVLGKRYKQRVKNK
In words: cell-based or functional assay.
As for B1, the “IC50, 1 nM PACAP38-induced human VPAC2-R mediated cAMP increase” value was 0.000239 µM.

Consider B2, for which the “IC50, 1 nM PACAP38-induced human VPAC2-R mediated cAMP increase” value turned out to be 0.000147 µM.

Regarding B3, the “IC50, 1 nM PACAP38-induced human VPAC2-R mediated cAMP increase” value is 0.000217 µM.

As for B4, the “IC50, 1 nM PACAP38-induced human VPAC2-R mediated cAMP increase” value is 0.000147 µM.

Turning to B5, the “IC50, 1 nM PACAP38-induced human VPAC2-R mediated cAMP increase” value came to 0.000218 µM.

For the molecule B6, the “IC50, 1 nM PACAP38-induced human VPAC2-R mediated cAMP increase” value came to 0.00696 µM.

In another experiment the target is T2, human VIP (human).
T2 construct: also called Vasoactive Intestinal Peptide
T2 peptide: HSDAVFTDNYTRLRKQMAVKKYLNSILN
In words: SPR, Ab immobilised. In general terms: SPR reads the build-up and loss of mass on a sensor chip optically.
Take B1: the Kd (commonly the concentration at which binding is half-saturated) turned out to be 7.2 µM, the koff (usually the first-order rate constant of dissociation) is 0.86 s⁻¹ and the kon (usually a measure of how fast the partners come together) was determined as 120000 M⁻¹ s⁻¹.

Molecule B2 displayed a Kd of 0.21 µM, a koff of 0.1 s⁻¹ and a kon of 480000 M⁻¹ s⁻¹.

In turn, B3 returned a Kd of 0.044 µM, a koff of 0.00014 s⁻¹ and a kon of 3100 M⁻¹ s⁻¹.

The molecule B4 displayed a Kd of 0.099 µM, a koff of 0.025 s⁻¹ and a kon of 250000 M⁻¹ s⁻¹.

B5 displayed a Kd of 0.12 µM, a koff of 0.021 s⁻¹ and a kon of 170000 M⁻¹ s⁻¹.

Take B6: the Kd was determined as 100000 µM and the koff turned out to be 0.1 s⁻¹.

For a further experiment, the target named is T1, human PACAP38. In words: SPR, Ab immobilised. The gist of the method:
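SPR with antibody amine-coupled to the chip and human PACAP38 flowed as analyte at 1.23–100 nM in PBST containing 0.25 M arginine, 0.2 mg/ml BSA and 0.005% azide, pH 7. Association lasted 2–4 min and dissociation 3–120 min. Kinetics were fitted to a 1:1 Langmuir model.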
Molecule B1 showed a Kd of at most 41 pM, a dissociation rate constant (koff) of at most 1e-05 s⁻¹ and a kon of 240000 M⁻¹ s⁻¹.

B2 registered a Kd of at most 29 pM, a koff of at most 1e-05 s⁻¹ and a kon of 350000 M⁻¹ s⁻¹.

B3 returned a Kd of 140 pM, a koff of 4.1e-05 s⁻¹ and a kon of 300000 M⁻¹ s⁻¹.

B4: the Kd is at most 27 pM, the koff was at most 1e-05 s⁻¹ and the kon amounted to 370000 M⁻¹ s⁻¹.

As to B5, the Kd is 220 pM, the koff stood at 7.2e-05 s⁻¹ and the kon was found to be 330000 M⁻¹ s⁻¹.

Turning to B6, the dissociation constant Kd was determined as 140 pM, the koff turned out to be 0.00011 s⁻¹ and the kon is 820000 M⁻¹ s⁻¹.

The target in a further experiment is T3, human PACAP27 (human, C-terminal leucine is amidated; 125I-labelled in Example 10).
T3 peptide: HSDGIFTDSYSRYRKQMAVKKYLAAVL
In words: SPR, Ab immobilised.
For B1, binding was put at a Kd of 96 pM, the koff amounted to 2.4e-05 s⁻¹ and the kon came to 250000 M⁻¹ s⁻¹.

As to B2, the Kd is 140 pM, the koff is 6e-05 s⁻¹ and the kon turned out to be 440000 M⁻¹ s⁻¹.

Consider B3, for which the Kd is 210 pM, the koff stood at 8.2e-05 s⁻¹ and the kon came to 390000 M⁻¹ s⁻¹.

Molecule B4 gave a Kd of at most 100 pM, a koff of at most 1e-05 s⁻¹ and a kon of 1e+06 M⁻¹ s⁻¹.

Take B5: binding was put at a Kd of 510 pM, the koff turned out to be 0.0002 s⁻¹ and the kon was found to be 390000 M⁻¹ s⁻¹.

Molecule B6 displayed a Kd of 340 pM, a koff of 0.00032 s⁻¹ and a kon of 960000 M⁻¹ s⁻¹.

Another experiment has as its target T1, human PACAP38. In words: cell-based or functional assay. This is another data set of the same source.
B1: the “IC50, 5 nM PACAP38-induced human VPAC1-R mediated cAMP increase” value is 0.000721 µM.

In the case of B2, the “IC50, 5 nM PACAP38-induced human VPAC1-R mediated cAMP increase” value turned out to be 0.000481 µM.

Consider B3, for which the “IC50, 5 nM PACAP38-induced human VPAC1-R mediated cAMP increase” value came out at 0.000797 µM.

For the molecule B4, the “IC50, 5 nM PACAP38-induced human VPAC1-R mediated cAMP increase” value amounted to 0.000665 µM.

Regarding B5, the “IC50, 5 nM PACAP38-induced human VPAC1-R mediated cAMP increase” value was found to be 0.000943 µM.

For the molecule B6, the “IC50, 5 nM PACAP38-induced human VPAC1-R mediated cAMP increase” value is 0.00406 µM.

The target in a further experiment is T1, human PACAP38. In words: HTRF binding, biotin-PACAP38. How it is done: In parallel, 10 μl of an antibody dilution series (highest final concentration of 100 nM) were incubated with 10 μl of N-terminal or C-terminal biotinylated PACAP38 (35 nM final) alone, or in combination with either PACAP27 (350 nM final) or VIP (350 nM final), i.e., 10× PACAP27 or 10×VIP, respectively, in a HTRF plate. 20 μl of Eu³⁺ cryptate labeled anti-hu Fc donor and 20 μl of d2-labeled streptavidin acceptor were added to each well and incubated for 1 hour at room temperature. Fluorescence was measured at 620 and 665 nm with a delay of 300 μsec.
EC₅₀ values, i.e. the concentration of an antibody that yields a response halfway between the baseline and the maximum value within a specified time period, were computed for each antibody based upon their binding curves and are shown in Table 1 below. […] A humanized form of antibody Ab1 was produced and is identified by an appended “.H”, i.e., Ab1.H, and it also bound PACAP38 with high affinity.
For orientation: TR-FRET usually uses a lanthanide donor and a delayed reading to cut background.
Take B1: the EC50 (usually the concentration at which the effect is half-maximal) came out at 0.0006 µM.

As to B2, the EC50 turned out to be 0.00048 µM.

In the case of B3, the EC50 was 0.0005 µM.

Turning to B4, the EC50 is 0.00043 µM.

Turning to B5, the EC50 was determined as 0.00066 µM.

As for B6, the EC50 amounted to 0.00023 µM.

The target of a further experiment is T1, human PACAP38. Description: inhibition of 100 nM biotin-PACAP38 binding to PC-12 cells, TRF. On the procedure: To identify antibodies that block PACAP38 binding to PAC1-R-expressing cells, adherent PC-12 cells (ATCC, Manassas, Va.) expressing PAC1-R were used in a Europium-based PAC1-R expressing cells binding assay.
Antibody solutions were incubated with N-terminal biotinylated PACAP38 at 10× the final concentration (100 nM or 30 nM) for 1 hr, then added to PC-12 cells that were plated 24 hrs. prior in black clear bottom 96 well plates (COSTAR™, Corning Incorporated, Corning, N.Y.) and further incubated for 1 hr at room temperature. After three washes, the cells were incubated with 20 μl Europium-labeled streptavidin (PerkinElmer, Waltham, Mass.) for 1 hr at room temperature. Cells were washed three times, then 20 μl DELFIA® Enhancement solution (PerkinElmer, Waltham, Mass.) was added to each well and incubated for 15 minutes with gentle shaking. Plates were read (Time Resolved Fluorescence (“TRF”)) on SPECTRAMAX® (Molecular Devices, Sunnyvale, Calif.) plate reader.
FIGS. 14A-14BB are representative of the inhibition curves obtained by this method (results are shown for Ab1, Ab2, Ab3, Ab4, Ab5, Ab6, Ab7, Ab8, Ab9, Ab10, Ab11, Ab12, Ab13, Ab14, Ab15, Ab16, Ab17, Ab18, Ab19, Ab1.H, Ab10.H, Ab22, Ab23, Ab3.H, Ab4.H, Ab5.H, Ab9.H, and Ab12.H, respectively) wherein the PAC1-R expressing cells were PC-12 cells.
For B1, the IC50 (in general, the concentration at which inhibition is half-maximal) was found to be 0.0163 µM.

Take B2: the IC50 was found to be 0.0203 µM.

On to B3, for which the IC50 was 0.0078 µM.

For B4, the IC50 came out at 0.0127 µM.

B5 registered an IC50 of 0.0286 µM.

The molecule B6 had an IC50 of 0.0333 µM.

A further experiment concerns the target T1, human PACAP38. In words: cell-based or functional assay. This is another data set of the same source.
In the case of B1, the “IC50, 0.1 nM PACAP38-induced PAC1-R mediated cAMP increase” value came out at 327 pM.

On to B2, for which the “IC50, 0.1 nM PACAP38-induced PAC1-R mediated cAMP increase” value came to 39.3 pM.

For the molecule B3, the “IC50, 0.1 nM PACAP38-induced PAC1-R mediated cAMP increase” value is 51.2 pM.

On to B4, for which the “IC50, 0.1 nM PACAP38-induced PAC1-R mediated cAMP increase” value stood at 293 pM.

With B5, the “IC50, 0.1 nM PACAP38-induced PAC1-R mediated cAMP increase” value was 340 pM.

Regarding B6, the “IC50, 0.1 nM PACAP38-induced PAC1-R mediated cAMP increase” value was determined as 987 pM.

In the next experiment the target is T3, human PACAP27. In words: cell-based or functional assay.
Consider B1, for which the “IC50, 0.1 nM PACAP27-induced PAC1-R mediated cAMP increase” value worked out at 353 pM.

In the case of B2, the “IC50, 0.1 nM PACAP27-induced PAC1-R mediated cAMP increase” value turned out to be 49 pM.

For the molecule B3, the “IC50, 0.1 nM PACAP27-induced PAC1-R mediated cAMP increase” value was determined as 380 pM.

B4: the “IC50, 0.1 nM PACAP27-induced PAC1-R mediated cAMP increase” value worked out at 72.9 pM.

For the molecule B5, the “IC50, 0.1 nM PACAP27-induced PAC1-R mediated cAMP increase” value turned out to be 76.9 pM.

As to B6, the “IC50, 0.1 nM PACAP27-induced PAC1-R mediated cAMP increase” value stood at 2840 pM.
